Data from patent US20250154287A1 (Pfizer, published 2025).

T1: biotinylated human MIGIS-α peptide (human, biotinylated)
T1 peptide: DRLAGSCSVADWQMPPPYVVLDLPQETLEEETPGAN

B1: GBT-IgA-0035 (ET17) (antibody, V domains shown)
VH: EVQLLESGGGLVQPGGSLRLSCAASGFTFSRYAMSWVRQVPGKGLEWVSAITGSGSGTYYADPVKGRFTISRDNSKNTLYLQMNSLRAEDTAVYHCAKERSGSSSDYWGQGTLVTVSS
VL: EIVLTQSPATLSLSPGERATLSCRASQTVGSHLAWYQQKPGQAPRLLIYEASNRATGIPPRFSGSGSGTDFTLTISSLEPEDFAVYYCQQRNNWPITFGQGTRLESKR
notes: Heavy constant region of the tested format is not tied to this name; also called E17
B2: GBT-IgA-0034 (ET10) (antibody, V domains shown)
VH: EVQLLESGGGLVQPGGSLRLSCAASGFTFSSYAMSWVRQVPGKGLEWVSSITGSGGGTYYADPVKGRFTISRDNSKNTLYLQMNSLRAEDTAVYHCAKERSGSSSDYWGQGTLVTVSS
VL: EIVLTQSPATLSLSPGERATLSCRASQTVRSHLAWYQQKPGQAPRLLIYEASNRATGIPPRFSGSGSGTDFTLTISSLEPEDFAVYYCQQRNNWPITFGQGTRLESKR
notes: Heavy constant region of the tested format is not tied to this name; also called E10
B3: GBT-IgA-0036 (ET18) (antibody, V domains shown)
VH: EVQLLESGGGLVQPGGSLRLSCAASGFTFSRYAMSWVRQVPGKGLEWVSAITGSGSGTYYADPVKGRFTISRDNSKNTLYLQMNSLRAEDTAVYHCAKERSGSSSDYWGQGTLVTVSS
VL: EIVLTQSPATLSLSPGERATLSCRASQTVSSHLAWYQQKPGQAPRLLIYEASNRATGIPPRFSGSGSGTDFTLTISSLEPEDFAVYYCQQRNNWPITFGQGTRLESKR
notes: Heavy constant region of the tested format is not tied to this name; also called E18
B4: GBT-IgA-0070 (H05 in one arm antibody format) (antibody)
heavy: not shown
chain: EPKSSDKTHTCPPCPAPEAAGAPSVFLFPPKPKDTLMISRTPEVTCVVVDVSHEDPEVKFNWYVDGVEVHNAKTKPREEQYNSTYRVVSVLTVLHQDWLNGKEYKCKVSNKALPAPIEKTISKAKGQPREPQVYTLPPCREEMTKNQVSLSCAVKGFYPSDIAVEWESNGQPENNYKTTPPVLDSDGSFFLVSKLTVDKSRWQQGNVFSCSVMHEALHNRYTQKSLSLSPGK
light: not shown
notes: also called H05 OAA
B5: GBT-IgA-1090 (antibody)
heavy: not shown
chain: EPKSSDKTHTCPPCPAPEAAGAPSVFLFPPKPKDTLMISRTPEVTCVVVDVSHEDPEVKFNWYVDGVEVHNAKTKPREEQYNSTYRVVSVLTVLHQDWLNGKEYKCKVSNKALPAPIEKTISKAKGQPREPQVYTLPPCREEMTKNQVSLSCAVKGFYPSDIAVEWESNGQPENNYKTTPPVLDSDGSFFLVSKLTVDKSRWQQGNVFSCSVMHEALHNRYTQKSLSLSPGK
light: not shown
notes: One-armed antibody
B6: GBT-IgA-1572 (antibody)
heavy: not shown
chain: EPKSSDKTHTCPPCPAPEAAGAPSVFLFPPKPKDTLMISRTPEVTCVVVDVSHEDPEVKFNWYVDGVEVHNAKTKPREEQYNSTYRVVSVLTVLHQDWLNGKEYKCKVSNKALPAPIEKTISKAKGQPREPQVYTLPPCREEMTKNQVSLSCAVKGFYPSDIAVEWESNGQPENNYKTTPPVLDSDGSFFLVSKLTVDKSRWQQGNVFSCSVMHEALHNRYTQKSLSLSPGK
light: not shown
notes: One-armed antibody
B7: GBT-IgA-1091 (antibody)
heavy: not shown
chain: EPKSSDKTHTCPPCPAPEAAGAPSVFLFPPKPKDTLMISRTPEVTCVVVDVSHEDPEVKFNWYVDGVEVHNAKTKPREEQYNSTYRVVSVLTVLHQDWLNGKEYKCKVSNKALPAPIEKTISKAKGQPREPQVYTLPPCREEMTKNQVSLSCAVKGFYPSDIAVEWESNGQPENNYKTTPPVLDSDGSFFLVSKLTVDKSRWQQGNVFSCSVMHEALHNRYTQKSLSLSPGK
light: not shown
notes: One-armed antibody; also called one armed antibody version of GBT-IgA-1602; OAA of GBT-IgA-1179

Assays:
[1] = target: T2, human membrane IgA overexpressed on Ramos cells (human); assay: flow cytometry on IgA+ Ramos cells
T2 construct: its MIGIS-α segment is the short form; also called IgA^+ Ramos; human IgA^+ RAMOS cells
T2 sequence (heavy, as listed by the source): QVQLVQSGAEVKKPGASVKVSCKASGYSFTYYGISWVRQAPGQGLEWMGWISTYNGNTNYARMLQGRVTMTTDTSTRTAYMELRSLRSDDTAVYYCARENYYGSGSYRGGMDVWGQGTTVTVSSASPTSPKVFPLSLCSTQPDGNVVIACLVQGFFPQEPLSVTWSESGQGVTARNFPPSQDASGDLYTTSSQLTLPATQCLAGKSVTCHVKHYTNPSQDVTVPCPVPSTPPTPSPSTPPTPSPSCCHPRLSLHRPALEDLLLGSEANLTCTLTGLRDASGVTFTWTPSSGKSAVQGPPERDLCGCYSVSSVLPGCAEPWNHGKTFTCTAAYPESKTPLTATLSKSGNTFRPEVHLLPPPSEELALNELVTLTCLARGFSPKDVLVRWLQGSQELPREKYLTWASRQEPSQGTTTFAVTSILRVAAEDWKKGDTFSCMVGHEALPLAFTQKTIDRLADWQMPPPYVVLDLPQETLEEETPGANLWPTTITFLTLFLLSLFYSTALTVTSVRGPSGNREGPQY

[2] = target: T3, parental (IgA^-) Ramos cell line, which expresses only cell surface IgM (UniProt P01871 1-474); assay: flow cytometry on parental Ramos cells
T3 construct: whole, on cells; Negative control cells without membrane IgA; also called mIgA negative Ramos cells; parental Ramos
T3 sequence (P01871 whole entry): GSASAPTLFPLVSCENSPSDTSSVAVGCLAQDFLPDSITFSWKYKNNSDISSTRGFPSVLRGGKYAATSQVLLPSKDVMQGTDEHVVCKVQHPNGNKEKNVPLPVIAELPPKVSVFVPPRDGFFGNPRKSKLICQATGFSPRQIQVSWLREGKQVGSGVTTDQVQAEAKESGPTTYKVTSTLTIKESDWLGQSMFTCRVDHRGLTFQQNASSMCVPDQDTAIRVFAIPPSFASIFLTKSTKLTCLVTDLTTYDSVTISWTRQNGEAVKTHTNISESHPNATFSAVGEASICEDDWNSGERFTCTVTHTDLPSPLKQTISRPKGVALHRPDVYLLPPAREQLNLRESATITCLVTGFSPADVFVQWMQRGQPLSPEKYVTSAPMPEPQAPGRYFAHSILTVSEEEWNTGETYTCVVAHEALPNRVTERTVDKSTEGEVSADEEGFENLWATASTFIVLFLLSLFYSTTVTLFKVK

[3] = target: T1, biotinylated human MIGIS-α peptide; assay: SPR (Biacore T200, 37 C), biotinylated peptide captured, OAA as analyte, 1:1 fit
[4] = target: T4, biotinylated cyno MIGIS-α peptide (cynomolgus monkey); assay: as above
T4 construct: domain: MIGIS-α

| EC50 [1] | mean fluorescence intensity at the top saturating concentration tested [1] | binding result [2] | Kd [3] | koff [3] | kon [3] | Kd [4] | koff [4] | kon [4] | Binder |
| --- | --- | --- | --- | --- | --- | --- | --- | --- | --- |
| 11.9 nM | 23600 MFI | no binding | – | – | – | – | – | – | B1 |
| 27 nM | 22600 MFI | no binding | – | – | – | – | – | – | B2 |
| 10.8 nM | 26100 MFI | no binding | – | – | – | – | – | – | B3 |
| – | – | – | 210 nM | 0.0222 s⁻¹ | 105000 M⁻¹ s⁻¹ | 56 nM | 0.0154 s⁻¹ | 275000 M⁻¹ s⁻¹ | B4 |
| – | – | – | 0.724 nM | 0.0015 s⁻¹ | 2.06e+06 M⁻¹ s⁻¹ | 1.05 nM | 0.0013 s⁻¹ | 1.27e+06 M⁻¹ s⁻¹ | B5 |
| – | – | – | 3.47 nM | 0.0028 s⁻¹ | 818000 M⁻¹ s⁻¹ | 3.4 nM | 0.0018 s⁻¹ | 548000 M⁻¹ s⁻¹ | B6 |
| – | – | – | 2.13 nM | 0.0028 s⁻¹ | 1.32e+06 M⁻¹ s⁻¹ | 2.46 nM | 0.0023 s⁻¹ | 953000 M⁻¹ s⁻¹ | B7 |
